Experimental data taken from PMC8476798, “SLURP-1 Controls Growth and Migration of Lung Adenocarcinoma Cells, Forming a Complex With α7-nAChR and PDGFR/EGFR Heterodimer” (Frontiers in Cell and Developmental Biology, 2021).

Key:
[1] = target: nicotinic acetylcholine receptor of α7 type (α7-nAChR) (human (endogenous in A549)) (UniProt P36544)
[2] = target: nicotinic acetylcholine receptor of α7 type (α7-nAChR) (human (endogenous in A549)) (UniProt P36544); remark: listed apart in the source
[3] = target: nicotinic acetylcholine receptor of α7 type (α7-nAChR) (human (endogenous in A549)) (UniProt P36544); remark: listed apart in the source
[4] = target: nicotinic acetylcholine receptor of α7 type (α7-nAChR) (human (endogenous in A549)) (UniProt P36544); conditions: scale: % of viable cells relative to the control
[5] = target: nicotinic acetylcholine receptor of α7 type (α7-nAChR) (human (endogenous in A549), UniProt P36544 23-502); test: cell-based or functional assay
Sequence of nicotinic acetylcholine receptor of α7 type (α7-nAChR) (P36544 23-502): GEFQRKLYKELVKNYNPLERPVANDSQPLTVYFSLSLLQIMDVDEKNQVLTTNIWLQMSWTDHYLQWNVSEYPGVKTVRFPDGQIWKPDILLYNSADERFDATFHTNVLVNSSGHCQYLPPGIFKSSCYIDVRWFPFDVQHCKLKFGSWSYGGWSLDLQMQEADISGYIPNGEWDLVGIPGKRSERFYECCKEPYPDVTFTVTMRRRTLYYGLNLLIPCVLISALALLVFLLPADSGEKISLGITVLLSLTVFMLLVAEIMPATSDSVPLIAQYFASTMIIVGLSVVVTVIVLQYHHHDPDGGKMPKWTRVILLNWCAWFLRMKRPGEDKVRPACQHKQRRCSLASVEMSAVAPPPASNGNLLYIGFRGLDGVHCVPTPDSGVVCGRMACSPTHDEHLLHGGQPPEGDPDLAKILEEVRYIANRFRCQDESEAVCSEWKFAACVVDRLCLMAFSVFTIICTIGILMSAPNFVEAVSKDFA

Sequence of nicotinic acetylcholine receptor of α7 type (α7-nAChR) (human (endogenous in A549)) (P36544 23-502): as above

synthetic peptide “loop III” with the sequence of loop III of SLURP-1
IC50 of inhibition of ACh-evoked currents at human α7-nAChRs expressed in X. laevis oocytes (two-electrode voltage clamp, 100 μM ACh) [1]: > 250000 nM

synthetic peptide “loop I” mimicking loop I of SLURP-1
EC50 of the inhibition of A549 cell migration, scratch assay (control cells without knock-down) [2]: 226 nM | IC50 of inhibition of ACh-evoked currents at human α7-nAChRs expressed in X. laevis oocytes (two-electrode voltage clamp, 100 μM ACh) [1]: 74000 nM | EC50 of the decrease of A549 cell viability, WST-1 test, 48 h [3]: 1800 nM

chimeric protein NTII/SL-1(I)
antiproliferative activity in A549 cells, WST-1 test, 48 h with 1 μM protein, % of viable cells relative to the control [4]: 70

B1: recombinant analogue of human SLURP-1 (rSLURP-1) (natural protein, UniProt P55000 23-103, looked up)
chain: LKCYTCKEPMTSASCRTITRCKPEDTACMTTLVTVEAEYPFNQSPVVTRSCSSSCVATDPDSIGAAHLIFCCFRDLCNSEL
EC50 of the decrease of A549 cell viability, WST-1 test, 48 h [5]: 10.1 nM | IC50 of inhibition of ACh-evoked currents at human α7-nAChRs expressed in X. laevis oocytes (two-electrode voltage clamp, 100 μM ACh) [5]: 12000 nM
